Results published in paper PMC9637997.

What was measured:
[1] = biological target: His-tagged GMAP (truncated form, 1-490 aa); experiment: GST-pulldown, quantified band intensity; settings: His-GMAP truncated form (aa 1-490); N = 3; parent: est. 3.0 (est. ± 0.7 SD); read off a plot
GST-tagged Atg8a-WT = GST-tagged Atg8a-WT (UniProt Q9W2S2); experiment: GST-pulldown, quantified band intensity; settings: GMAP truncated form (1-490 aa); N = 3; parent: est. 1.6 (est. ± 0.18 SD); read off a plot
Sequence of UniProt Q9W2S2 (Q9W2S2 entry or part of it): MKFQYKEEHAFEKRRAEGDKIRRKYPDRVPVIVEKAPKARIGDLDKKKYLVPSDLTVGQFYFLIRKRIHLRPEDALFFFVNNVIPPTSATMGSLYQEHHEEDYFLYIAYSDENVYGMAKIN

| response [1] | response (GST-tagged Atg8a-WT) | Substance |
| --- | --- | --- |
| 1 | – | GST-tagged Atg8a-WT (from UniProt Q9W2S2) K48A; Y49A |
| – | 1 | His-tagged GMAP (truncated form, 1-490 aa) F322A; V325A |
